Source: patent US8663912B2, “Fluorogenic substrate for ADAMTS13” (Washington University, priority 2011, dated 2014)
* marks the point of attachment. X1 = CC1(C)C(/C=C/C2=C(Cl)C(=C/C=C3/N(CCCCCC(=O)*)c4ccc5cc(S(=O)(=O)O)ccc5c4C3(C)C)/CCC2)=[N+](CCCS(=O)(=O)[O-])c2ccc(N(CCCS(=O)(=O)O)CCCS(=O)(=O)O)cc21; X2 = CC(C)(C)c1cc(/C=C/C=C2\N(CCCS(=O)(=O)O)c3ccc(S(=O)(=O)O)cc3C2(C)CCCC(=O)CCN2C(=O)CC(*)C2=O)c2ccc(N(CCCS(=O)(=O)[O-])CCCS(=O)(=O)O)cc2[o+]1

Test: Solubility of substrate in water
Format: physicochemical
Conditions: sodium salt
Description: The present inventors have tested several combinations of donor and quencher groups chosen for lack of interference from blood proteins. For example, modification at Cys^1610 with Alexa Fluor 594 maleimide (abs 590 nm, em 617 nm, ε 96,000) and at N-terminal. […] In one embodiment, a substrate of the present teachings is modified at Cys^1610 with DyLight 633-maleimide (Thermo, abs 638 nm, em 658 nm, ε 170,000), and at N-terminal Gly with IRDye QC-1 N-hydroxysuccinimidyl ester (LI-COR, abs 737 nm, ε 96,000). […] After RP-HPLC purification the doubly-labeled substrate (FRETS-rVWF71) is soluble at >50 μM.
In these experiments, DyLight 633 maleimide (Thermo Scientific, Waltham, Mass.) 1 mg/100 μL in dimethyl sulfoxide (DMSO) was added dropwise with stirring to peptide VWF71 (10 mg) in ≦2 mL of 100 mM sodium phosphate, pH 7.1, in the dark, and stirred overnight at room temperature. The product DyLight 633-rVWF71 was purified by HPLC on C18 using the TEAA/acetonitrile solvent system as described for the purification of VWF71. DyLight 633-rVWF71 was lyophilized and desalted on a small column of PD-10 in ≦2 mL of 100 mM sodium phosphate, pH 7.9. IRDye QC-1 N-hydroxysuccinimide ester 0.5 mg in 100 μL DMSO was added dropwise with stirring and the solution was stirred overnight at room temperature protected from light. […]

Substance: X1-GQAPNLVYMVTGC(X2)PASDEIRRLPGDIQVVPIGVGPNANVQELERIGWPNAPILIQDFETLPREAPDLVLQR [FRETS-rVWF71]
- solubility: > 250 µM
